For orientation: stoichiometry N means a count of units in the complex or per binding partner.

The target of the assay is NiV F clamp (Nipah virus (Malaysia strain)) (UniProt Q9IH63). Nature of the assay: SEC. In general terms: Size exclusion chromatography separates by hydrodynamic size, large species first.

As for “NiV F clamp (from UniProt Q9IH63 27-483)”, the stoichiometry N was found to be 3.

The values above are taken from PMC8537613.
